We go through one molecule from patent EP4201483A1 (Eberhard-Karls-Universität Tübingen, dated 2023).

For this test, the target named is T1, human heat shock protein Hsp90α (human, UniProt P07900 2-732).
T1 construct: Target protein of the dot blot assay
The test can be described thus: dot blot assay, direct interaction with Hsp90α.

B1: SNC1 (15aa) (peptide)
peptide: DEIVKELRSRYNIST
On to B1, for which the binding result is listed as “no binding”.
